Molecular target: B42 activation domain-EE34 prey fusion protein (yeast, pJG4-5)
Assay: cell-based or functional assay

β-glucuronidase reporter activity with MU-gluc substrate, combination 6 relative to combination 5, yeast two-hybrid (fold higher than combination 5): 10
Substance: λ cI-RR34 bait fusion protein (from UniProt P03034 1-237)
